Experimental data: publication doi:10.1101/2022.03.30.486445 (bioRxiv, 2022)

How the values were obtained:
[1] = molecular target: GMPCPP-stabilized HyLite 647/biotin-labeled microtubules (bovine) (UniProt Q6B856); experiment: single-molecule TIRF microscopy
[2] = molecular target: doubly stabilized microtubules (GMPCPP and paclitaxel) (UniProt Q6B856 1-445); experiment: co-sedimentation
[3] = molecular target: T1, His6-EB1-CyPet (human, UniProt Q15691 1-268); experiment: FRET or BRET
T1 sequence: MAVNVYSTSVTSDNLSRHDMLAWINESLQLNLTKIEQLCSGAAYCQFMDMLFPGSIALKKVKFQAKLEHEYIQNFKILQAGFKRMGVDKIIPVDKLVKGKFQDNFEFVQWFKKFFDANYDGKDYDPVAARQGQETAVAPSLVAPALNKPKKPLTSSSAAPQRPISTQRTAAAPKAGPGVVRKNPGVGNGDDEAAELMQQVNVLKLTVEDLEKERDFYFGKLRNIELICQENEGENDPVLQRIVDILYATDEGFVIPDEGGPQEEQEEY

B1: GFP-Kif18B (full-length human Kif18B N-terminally tagged with EGFP) (natural protein)
chain: MAVEDSTLQVVVRVRPPTPRELDSQRRPVVQVVDERVLVFNPEEPDGGFPGLKWGGTHDGPKKKGKDLTFVFDRVFGEAATQQDVFQHTTHSVLDSFLQGYNCSVFAYGATGAGKTHTMLGREGDPGIMYLTTVELYRRLEARQQEKHFEVLISYQEVYNEQIHDLLEPKGPLAIREDPDKGVVVQGLSFHQPASAEQLLEILTRGNRNRTQHPTDANATSSRSHAIFQIFVKQQDRVPGLTQAVQVAKMSLIDLAGSERASSTHAKGERLREGANINRSLLALINVLNALADAKGRKTHVPYRDSKLTRLLKDSLGGNCRTVMIAAISPSSLTYEDTYNTLKYADRAKEIRLSLKSNVTSLDCHISQYATICQQLQAEVAALRKKLQVYEGGGQPPPQDLPGSPKSGPPPEHLPSSPLPPHPPSQPCTPELPAGPRALQEESLGMEAQVERAMEGNSSDQEQSPEDEDEGPAEEVPTQMPEQNPTHALPESPRLTLQPKPVVGHFSARELDGDRSKQLALKVLCVAQRQYSLLQAANLLTPDMITEFETLQQLVQEEKIEPGAEALRTSGLARGAPLAQELCSESIPVPSPLCPEPPGYTGPVTRTMARRLSGPLHTLGIPPGPNCTPAQGSRWPMEKKRRRPSALEADSPMAPKRGTKRQRQSFLPCLRRGSLPDTQPSQGPSTPKGERASSPCHSPRVCPATVIKSRVPLGPSAMQNCSTPLALPTRDLNATFDLSEEPPSKPSFHECIGWDKIPQELSRLDQPFIPRAPVPLFTMKGPKPTSSLPGTSACKKKRVASSSVSHGRSRIARLPSSTLKRPAGPLVLPGDWH
dwell time at MT plus ends [1]: 5.56 s | dwell time at MT plus ends, with importin α/β [1]: 5.39 s | dwell time on the MT lattice [1]: 1.77 s | dwell time on the MT lattice, with importin α/β [1]: 2.3 s | on-rate on MTs (landing events per MT length and time) [1]: 0.26 µm·s^-1 | on-rate on MTs (landing events per MT length and time), with importin α/β [1]: 0.35 µm·s^-1

B2: YPet-Kif18B(605-828)-His6 (domain or fragment)
chain: TRTMARRLSGPLHTLGIPPGPNCTPAQGSRWPMEKKRRRPSALEADSPMAPKRGTKRQRQSFLPCLRRGSLPDTQPSQGPSTPKGERASSPCHSPRVCPATVIKSRVPLGPSAMQNCSTPLALPTRDLNATFDLSEEPPSKPSFHECIGWDKIPQELSRLDQPFIPRAPVPLFTMKGPKPTSSLPGTSACKKKRVASSSVSHGRSRIARLPSSTLKRPAGPLVL
fold increase in the Kd for MTs with importin α/β against without [2]: 9 fold | binding result [3]: binds

B3: YPet-Kif18B(605-828)-NLS1/2 (domain or fragment)
chain: TRTMARRLSGPLHTLGIPPGPNCTPAQGSRWPMEAAARRPSALEADSPMAPAAGTKRQRQSFLPCLRRGSLPDTQPSQGPSTPKGERASSPCHSPRVCPATVIKSRVPLGPSAMQNCSTPLALPTRDLNATFDLSEEPPSKPSFHECIGWDKIPQELSRLDQPFIPRAPVPLFTMKGPKPTSSLPGTSACAAAAVASSSVSHGRSRIARLPSSTLKRPAGPLVL
fold increase in the Kd for MT binding relative to YPet-Kif18B(605-828) [2]: ~2 fold | binding result [3]: binds

B4: YPet-Kif18B(605-707)-His6 (domain or fragment)
chain: TRTMARRLSGPLHTLGIPPGPNCTPAQGSRWPMEKKRRRPSALEADSPMAPKRGTKRQRQSFLPCLRRGSLPDTQPSQGPSTPKGERASSPCHSPRVCPATVI
binding result [3]: binds

B5: YPet-Kif18B(708-828)-His6 (domain or fragment)
chain: KSRVPLGPSAMQNCSTPLALPTRDLNATFDLSEEPPSKPSFHECIGWDKIPQELSRLDQPFIPRAPVPLFTMKGPKPTSSLPGTSACKKKRVASSSVSHGRSRIARLPSSTLKRPAGPLVL
binding result [3]: binds

B6: YPet-Kif18B(708-828) E2 (domain or fragment)
chain: KSRVPLGPSAMQNCSTPLALPTRDLNATFDLSEEPPSKPSFHECIGWDKIPQELSRLDQPFIPRAPVPLFTMKGPKPTSSNNGTSACKKKRVASSSVSHGRSRIARLPSSTLKRPAGPLVL
binding result [3]: binds
